According to patent US20120045393A1 (priority 2009, published 2012):
Non-standard residues stand in square brackets, D forms with d. Primed or numbered codes have the meaning given here. *: point of attachment. DO3A10CM(3) = metal chelator group attached at the N-terminus (X in table rows); DO3A10CM″ = chelating group at the N-terminus (X in the sequence tables); Bpa = N[C@@H](Cc1ccc(C(=O)c2ccccc2)cc1)C(=O)O; d2Nal = N[C@H](Cc1ccc2ccccc2c1)C(=O)O; d3Pal = N[C@H](Cc1cccnc1)C(=O)O; DO3A10CM = not defined here; Nicotinoyl = O=C(c1cccnc1)*; Chmgly = not defined here; Apgly = not defined here; Bugly = not defined here; Cegly = not defined here; Etgly = not defined here; Hegly = not defined here; Iegly = not defined here; Ipgly = not defined here; Mpgly = not defined here; Prgly = not defined here; Tdgly = not defined here; Btd = not defined here; Tha = not defined here; azaGly = NNC(=O)O; Sar = CNCC(=O)O

Each molecule was assayed against LHRH binding sites on EFO-27 human ovarian cancer cells (human) (assay: competition with [125I-Tyr8]BRU-2477 on EFO-27 cells). Settings: not given.

Molecule	EC50	times lesser binding efficacy than BRU-2443	fold reduction in binding potency against BRU-2813	times lower binding than BRU-2443
XRWSHXWXP (DO3A10CM on N-terminus; AA1 Dnal2; AA6 Darg; AA8 Bpa4; AA10 Aprp1h3) [BRU-2982]	1130 nM			
{DO3A10CM″}-[Sar][Tha]WS[Tha][dR]W[Bpa]P[azaGly]-NH2 (reading uncertain) [BRU-2762]	15000 nM			
{DO3A10CM″}-G[Mephe]HWSHRW[Bpa]P[azaGly]-NH2 (not fully specified (residue 7)) [BRU-2755]	1290 nM			
{DO3A10CM″}-[Sar][His(pime)]WS[Tha][dR]W[Bpa]P[azaGly]-NH2 (reading uncertain) [BRU-2739]	5280 nM			
XHWSHXWXPX (DO3A10CM on N-terminus; AA1 Mednal2; AA6 Darg; AA8 Bpa4; AA10 azaGly-NH2) [BRU-3003]	760 nM			
XRWSHXWXPGX (DO3A10CM on N-terminus; AA1 Dnal2; AA6 Darg; AA8 Bpa4; AA10 Gly-NH2 (amide)) [BRU-3005]	660 nM			
{DO3A10CM(3)}-[Sar]HWSH[dA]W[Bpa]P[azaGly]-NH2 [BRU-2672]	14000 nM			
DO3A10CM-G[Chgly]HWSHRW[Bpa]P[azaGly]-NH2 (reading uncertain; also: AA6 Darg prints R) [BRU-2872]	2900 nM			
XRWSXXWXPX (DO3A10CM on N-terminus; AA1 Dnal2; AA5 Cit; AA6 Darg; AA8 Bpa4; AA10 azaGly-NH2) [BRU-3030]	930 nM			
XHWSHXWXPX (DO3A10CM on N-terminus; AA1 Sar; AA6 Darg; AA8 Lys(isp); AA10 azaGly-NH2) [BRU-2675]	12300 nM			
DO3A10CM-G[Chmgly]HWSHRW[Bpa]P[azaGly]-NH2 (not fully specified (residue 7); reading uncertain; also: AA6 Darg prints R) [BRU-2877]	900 nM			
DO3A10CM-[Sar]HWSH[Btd]W[Bpa]P[azaGly]-NH2 (reading uncertain) [BRU-3000]	4230 nM	4.5 times		
DO3A10CM-G[Hegly]HWSHRW[Bpa]P[azaGly]-NH2 (reading uncertain; also: AA6 Darg prints R) [BRU-2873]	1330 nM			
XHWSHXWXPX (DO3A10CM on N-terminus; AA1 Sar; AA6 Darg; AA8 Bip; AA10 azaGly-NH2) [BRU-2625]	2140 nM			
XHWSHXWXPX (DO3A10CM on N-terminus; AA1 Sar; AA6 Darg; AA8 Cha; AA10 azaGly-NH2) [BRU-2718]	630 nM			
XHWSHXWXPX (DO3A10CM on N-terminus; AA1 Sar; AA6 Darg; AA8 Pal3; AA10 azaGly-NH2) [BRU-2726]	17400 nM			
DO3A10CM-[Sar]HWSH[dW]W[Bpa]P[azaGly]-NH2 (reading uncertain) [BRU-2731]	1360 nM			

Molecule	EC50	times lesser binding efficacy than BRU-2443	fold reduction in binding potency against BRU-2813	times lower binding than BRU-2443
DO3A10CM-G[Ipgly]HWSH[dR]W[Bpa]P[azaGly]-NH2 (reading uncertain) [BRU-2790]	3300 nM			
{DO3A10CM(3)}-[Sar]HWSH[dK](Nicotinoyl)WYP[azaGly]-NH2 [BRU-2674]	22600 nM			
XRWSHXWXP (not fully specified; DO3A10CM on N-terminus; AA1 Dnal2 (Table 6; Sar in paragraph 138); AA6 Darg; AA8 Bpa4; AA10 Az23po-Dabt14) [BRU-3019]	900 nM			
DO3A10CM-G[Cegly]HWSHRW[Bpa]P[azaGly]-NH2 (not fully specified (residue 7); reading uncertain; also: AA6 Darg prints R) [BRU-2875]	8700 nM			
XRWSXXWXPX (DO3A10CM on N-terminus; AA1 Dnal2; AA5 Tha; AA6 Darg; AA8 Bpa4; AA10 azaGly-NH2) [BRU-2958]	710 nM			
{DO3A10CM(3)}-[Sar]HWSH[dK](Nicotinoyl)W[Bpa]P[azaGly]-NH2 [BRU-2671]	7200 nM			
DO3A10CM-G[Apgly]HWSHRW[Bpa]P[azaGly]-NH2 (not fully specified (residue 7); reading uncertain; also: AA6 Darg prints R) [BRU-2874]	1970 nM			
XHWSHXWXPX (DO3A10CM on N-terminus; AA1 Sar; AA6 Dcit; AA8 Bpa4; AA10 azaGly-NH2) [BRU-2729]	14200 nM			15 times
XRWSHXWXPG (DO3A10CM on N-terminus; AA1 Dnal2; AA6 Darg; AA8 Bpa4; C-terminal Gly-Az23(py2)2po-Ap) [BRU-2989]	1130 nM			
XRXSHXWXPX (DO3A10CM on N-terminus; AA1 Dnal2; AA3 Dtrp; AA6 Darg; AA8 Bpa4; AA10 azaGly-NH2) [BRU-3112]	850 nM			
DO3A10CM-G[Bugly]HWSH[dR]W[Bpa]P[azaGly]-NH2 (reading uncertain) [BRU-2791]	4030 nM			
XHWSHXWXPX (DO3A10CM on N-terminus; AA1 Sar; AA6 Darg; AA8 Nal1; AA10 azaGly-NH2) [BRU-2720]	540 nM			
{DO3A10CM(3)}-[Sar]HWSH[d3Pal]W[Bpa]P[azaGly]-NH2 [BRU-2673]	12300 nM			
DO3A10CM-G[Etgly]HWSH[dR]W[Bpa]P[azaGly]-NH2 (reading uncertain) [BRU-2789]	5120 nM			
XRWSHXWXP (not fully specified; DO3A10CM on N-terminus; AA1 Dnal2 (Table 6; Sar in paragraph 138); AA6 Darg; AA8 Bpa4; AA10 Az23po-Da15o3pt) [BRU-3022]	710 nM			
XHWSHXWXPX (DO3A10CM on N-terminus; AA1 Sar; AA6 Darg; AA8 Tbufe4; AA10 azaGly-NH2) [BRU-2634]	980 nM			
DO3A10CM-G[Prgly]HWSH[dR]W[Bpa]P[azaGly]-NH2 (reading uncertain) [BRU-2794]	1300 nM			

Next, values leading:

EC50	times lesser binding efficacy than BRU-2443	fold reduction in binding potency against BRU-2813	times lower binding than BRU-2443	Molecule
3280 nM				DO3A10CM-[d2Nal]RWSR[dW]W[Bpa]P[azaGly]-NH2 (reading uncertain) [BRU-3001]
1340 nM				DO3A10CM-G[Mpgly]HWSH[dR]W[Bpa]P[azaGly]-NH2 (reading uncertain) [BRU-2793]
13600 nM				{DO3A10CM″}-[Sar]HWSH[dS]W[Bpa]P[azaGly]-NH2 [BRU-2761]
1030 nM				DO3A10CM-G[Iegly]HWSHRW[Bpa]P[azaGly]-NH2 (not fully specified (residue 7); reading uncertain; also: AA6 Darg prints R) [BRU-2879]
970 nM				DO3A10CM-[d2Nal]RWSH[dR]W[Bpa]PGF-NH2 (reading uncertain) [BRU-2980]
730 nM				XRXSHXWXPX (DO3A10CM on N-terminus; AA1 Dnal2; AA3 Pal3; AA6 Darg; AA8 Bpa4; AA10 azaGly-NH2) [BRU-3109]
4480 nM				DO3A10CM-G[Tdgly]HWSHRW[Bpa]P[azaGly]-NH2 (not fully specified (residue 7); reading uncertain; also: AA6 Darg prints R) [BRU-2878]
970 nM				XRWSHXWXP (DO3A10CM on N-terminus; AA1 Dnal2; AA6 Darg; AA8 Bpa4; AA10 Ae (aminoethane)) [BRU-2981]
840 nM				XRWXHXWXPX (DO3A10CM on N-terminus; AA1 Dnal2; AA4 Pal4; AA6 Darg; AA8 Bpa4; AA10 azaGly-NH2) [BRU-2957]
8540 nM				XHWSHXWYPX (HELM PEPTIDE1{[Glp].H.W.S.H.[dK].W.Y.P.[O=C(NN[*:1])[*:2]].[am]}$$$$V2.0; SMILES NCCCC[C@@H](NC(=O)[C@H](Cc1c[nH]cn1)NC(=O)[C@H](CO)NC(=O)[C@H](Cc1c[nH]c2ccccc12)NC(=O)[C@H](Cc1c[nH]cn1)NC(=O)[C@@H]1CCC(=O)N1)C(=O)N[C@@H](Cc1c[nH]c2ccccc12)C(=O)N[C@@H](Cc1ccc(O)cc1)C(=O)N1CCC[C@H]1C(=O)NNC(N)=O) [BRU-2437]
580 nM		2 fold		XRWSHXWXPX (DO3A10CM on N-terminus; AA1 Mednal2; AA6 Darg; AA8 Bpa4; AA10 azaGly-NH2) [BRU-2965]
2300 nM				XRWSHXWXPG (DO3A10CM on N-terminus; AA1 Dnal2; AA6 Darg; AA8 Bpa4; C-terminal Gly-Aprp1h3) [BRU-2987]
2600 nM			2.7 times	XHWSHXWXPX (DO3A10CM on N-terminus; AA1 Sar; AA6 Dharg; AA8 Bpa4; AA10 azaGly-NH2) [BRU-2893]
510 nM				XRWSHXWXP (DO3A10CM on N-terminus; AA1 Dnal2; AA6 Darg; AA8 Bpa4; AA10 Aeh2 (aminoethanol; printed Ach2 in paragraph 138)) [BRU-2970]

These molecules were tested on LHRH binding sites on human ovarian cancer cells (EFO-27) (assay: not given). Settings: not given.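 Also: Cell-associated radioactivity on confluent EFO-27 monolayers in 96-well plates, measured by microplate scintillation counting.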

EC50	Molecule
4620 nM	CN(CC(=O)N[C@@H](Cc1c[nH]cn1)C(=O)N[C@@H](Cc1c[nH]c2ccccc12)C(=O)N[C@@H](CO)C(=O)N[C@@H](Cc1c[nH]cn1)C(=O)N[C@H](CCCNC(=N)N)C(=O)N[C@@H](Cc1c[nH]c2ccccc12)C(=O)N[C@@H](Cc1c(F)c(F)c(F)c(F)c1F)C(=O)N1CCC[C@H]1C(=O)NNC(N)=O)C(=O)CN1CCN(CC(=O)O)CCN(CC(=O)O)CCN(CC(=O)O)CC1 [BRU-2722]

Same assay, conditions: EFO-27 cells, competition with [125I-Tyr8]BRU-2477, 90 min

Molecule	EC50
N=C(N)NCCC[C@H](NC(=O)[C@@H](Cc1ccc2ccccc2c1)NC(=O)CN1CCN(CC(=O)O)CCN(CC(=O)O)CCN(CC(=O)O)CC1)C(=O)N[C@@H](Cc1c[nH]c2ccccc12)C(=O)N[C@@H](CO)C(=O)N[C@@H](Cc1c[nH]cn1)C(=O)N[C@H](CCCNC(=N)N)C(=O)N[C@@H](Cc1c[nH]c2ccccc12)C(=O)N[C@@H](Cc1ccc(C(=O)c2ccccc2)cc1)C(=O)N1CCC[C@H]1C(=O)NCC(N)=O [compound 3005]	660 nM
